In experiment [1] the test system is dopamine and the adrenergic receptors. The note with it: U2OS cells, agonist 100 pM to 100 µM. The procedure:
(§1) Two hours after transfection, all cell populations were pooled, mixed, and evenly divided into fractions for plating onto assay dishes (Fig. 2a). The cells were cultured and stimulated under identical conditions for agonist or antagonist assays as initially described for GPCR split TEV assays (Supplementary Fig. S1a,b).
(§2) After cell lysis, RNA from each sample was isolated and converted into cDNA by reverse transcription. […] This permits the mixing of all samples and sequencing of all pooled samples using a single sequencing run (Fig. 2b). The sample barcodes enable tracing experimental conditions, whereas the read counts per EXTs serve as quantitative measurements for the corresponding GPCRs. […] From the normalized data the fold changes of receptor activities were finally calculated.
(§3) In addition to the stimulation with the single compounds, a compound-mixture (mix) of all agonists was tested. The first set of experiments were carried out in the human osteosarcoma cell line U2OS. We normalized the raw sequencing data to total read numbers of sample codes, followed by averaging reads of internal and external calibrator EXTs as described above (Supplementary Fig. S4).
(§4) Cells were resuspended in culture medium without antibiotics at a density of 1.5 × 10^6 cells/ml (U2OS) or 3 × 10^6 cells/ml (PC12). […] Transfection-mixes were added to cell suspensions and incubated for 2 h at 37 °C without shaking. Suspensions were centrifuged for 5 min at 900 rpm and resuspended in culture medium to remove transfection reagents. All transfection samples were combined within one pool and plated on multiple wells of 6-well plates and incubated for 24 h at 37 °C. Afterwards, cells were starved for 17–18 h and then treated with compounds for 6 h in duplicates. After compound treatment cells were washed with PBS and 500 µl RLT lysis buffer was applied for cell lysis. Lysates were processed for sequencing as described below.
RNA was additional in solution treated with Turbo DNase (Ambion) for 30 min at 37 °C and repurified over an RNeasy column. […]

Experiment [2] relates to T1, somatostatin receptor SSTR1.
T1 construct: ORFs of GPCRs were PCR amplified; expressed in transfected cells; host or cells: U2OS
Description: multiplexed GPCRprofiler assay in U2OS cells. Format: cell-based, human. The note with it: agonist 100 pM to 100 µM. The method, then:
as §1, §2, §3, §4
(§5) RNA was additional in solution treated with Turbo DNase (Ambion) for 30 min at 37 °C and repurified over an RNeasy column. First-strand cDNA synthesis was performed with 1 µg total RNA using superscript III reverse transcriptase (Invitrogen) and 120 pmol of a random nanomer primer. […] On order to differentiate different samples 13mer barcodes were introduced between 5′ Ion adapter and target sequence. All processed samples of an experiment were combined within one pool and purified using PCR clean-up kit (Macherey-Nagel).
(§6) Raw sequencing data analyses were done by using BLAST algorithm and in-house developed R scripts.

Experiment [3] deals with T2, somatostatin receptor SSTR2.
T2 construct: ORFs of GPCRs were PCR amplified; expressed in transfected cells; host or cells: U2OS
Description: multiplexed GPCRprofiler assay in U2OS cells. The note with it: agonist 100 pM to 100 µM. The class given is cell-based, human. The method, then: as §1, §2, §3, §4, §5, §6

Experiment [4] deals with T3, somatostatin receptor SSTR3.
T3 construct: ORFs of GPCRs were PCR amplified; expressed in transfected cells; host or cells: U2OS
Nature of the experiment: multiplexed GPCRprofiler assay in U2OS cells. Format: cell-based, human. The note with it: agonist 100 pM to 100 µM. The method, then: as §1, §2, §3, §4, §5, §6

The subject of experiment [5] is T4, Vasopressin receptor AVPR1A.
T4 construct: ORFs of GPCRs were PCR amplified; expressed in transfected cells; host or cells: U2OS
Description: multiplexed GPCRprofiler assay in U2OS cells. Format: cell-based, human. Conditions: agonist 100 pM to 100 µM. The procedure:
as §1, §2, §3, §4, §5, §6

Experiment [6] relates to T5, Vasopressin receptor AVPR2.
T5 construct: ORFs of GPCRs were PCR amplified; expressed in transfected cells; host or cells: U2OS
Nature of the experiment: multiplexed GPCRprofiler assay in U2OS cells. Format: cell-based, human. Conditions: agonist 100 pM to 100 µM. The method, then: as §1, §2, §3, §4, §5, §6

In experiment [7] the target is ADRA1A-V2R-NTEV-tevS-GV (human) (UniProt P35348). Description: split reporter (BiFC, NanoBiT); multiplexed GPCRprofiler: split TEV with EXT barcode read-out, identical experiment in PC12 cells (Supplementary Fig. S5).
Sequence of ADRA1A-V2R-NTEV-tevS-GV (human) (P35348 whole entry): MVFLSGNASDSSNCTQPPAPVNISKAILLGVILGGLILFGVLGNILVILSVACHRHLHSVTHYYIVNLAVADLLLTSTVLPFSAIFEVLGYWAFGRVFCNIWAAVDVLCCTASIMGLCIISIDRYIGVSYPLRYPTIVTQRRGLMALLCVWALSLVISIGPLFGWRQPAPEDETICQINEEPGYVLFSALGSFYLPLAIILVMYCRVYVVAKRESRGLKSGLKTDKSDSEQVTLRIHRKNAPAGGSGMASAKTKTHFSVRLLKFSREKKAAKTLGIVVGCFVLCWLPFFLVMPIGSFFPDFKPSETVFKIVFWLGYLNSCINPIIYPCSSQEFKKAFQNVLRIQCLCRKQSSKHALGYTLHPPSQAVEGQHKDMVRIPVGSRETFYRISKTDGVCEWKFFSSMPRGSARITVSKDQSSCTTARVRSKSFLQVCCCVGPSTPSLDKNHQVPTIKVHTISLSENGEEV
For experiment [8], the target named is AVPR1A-V2R-NTEV-tevS-GV (human) (UniProt P37288). The description is as above.
Sequence of AVPR1A-V2R-NTEV-tevS-GV (human) (P37288 whole entry): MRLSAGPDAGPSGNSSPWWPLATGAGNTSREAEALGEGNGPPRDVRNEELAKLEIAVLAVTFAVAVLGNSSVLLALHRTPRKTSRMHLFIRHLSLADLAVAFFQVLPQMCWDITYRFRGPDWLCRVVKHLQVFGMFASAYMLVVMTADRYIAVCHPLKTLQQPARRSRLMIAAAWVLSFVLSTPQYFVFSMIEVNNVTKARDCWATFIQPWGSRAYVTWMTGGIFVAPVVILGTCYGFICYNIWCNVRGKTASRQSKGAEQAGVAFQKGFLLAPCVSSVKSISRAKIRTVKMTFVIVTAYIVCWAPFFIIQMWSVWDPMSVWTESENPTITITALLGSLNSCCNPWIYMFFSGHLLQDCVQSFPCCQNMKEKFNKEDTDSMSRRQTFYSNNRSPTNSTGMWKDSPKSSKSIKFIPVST
In experiment [9] the target is HTR2A-V2R-NTEV-tevS-GV (human) (UniProt P28223). Described as above.
For experiment [10], the target named is ADRA2B-V2R-NTEV-tevS-GV (human) (UniProt P18089). Description: split reporter (BiFC, NanoBiT); multiplexed GPCRprofiler: split TEV with EXT barcode read-out, U2OS cells transiently transfected with GPCR-V2R-NTEV-tevS-GV and β-arrestin2delta-CTEV, pooled; serotonin, dopamine, epinephrine, vasopressin, somatostatin or their mix, 100 pM to 100 µM, 6 h; also with paliperidone or aripiprazole alone or with an agonist mix (1 µM each, with histamine); fold change over unstimulated.
Sequence of ADRA2B-V2R-NTEV-tevS-GV (human) (P18089 whole entry): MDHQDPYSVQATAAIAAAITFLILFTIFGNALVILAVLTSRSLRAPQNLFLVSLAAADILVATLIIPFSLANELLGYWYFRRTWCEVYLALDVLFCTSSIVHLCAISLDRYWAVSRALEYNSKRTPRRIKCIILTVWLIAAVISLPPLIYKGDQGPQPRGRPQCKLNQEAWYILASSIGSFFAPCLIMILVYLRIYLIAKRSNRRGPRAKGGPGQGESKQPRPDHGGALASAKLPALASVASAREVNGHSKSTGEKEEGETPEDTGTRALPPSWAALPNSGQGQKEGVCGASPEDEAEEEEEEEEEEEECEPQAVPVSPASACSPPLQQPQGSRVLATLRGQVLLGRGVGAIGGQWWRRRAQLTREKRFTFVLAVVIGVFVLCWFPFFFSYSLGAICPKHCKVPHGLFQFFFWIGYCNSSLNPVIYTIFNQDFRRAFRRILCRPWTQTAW

Experiment [11] has as its target ADRA2C-V2R-NTEV-tevS-GV (human) (UniProt P18825). The description is as above.
In experiment [12] the target is DRD1-V2R-NTEV-tevS-GV (human) (UniProt P21728). The experiment is described as above.
Experiment [13] addresses DRD2-V2R-NTEV-tevS-GV (human) (UniProt P14416). The experiment is described as above.
Experiment [14] deals with DRD3-V2R-NTEV-tevS-GV (human) (UniProt P35462). The experiment is described as above.
Sequence of DRD3-V2R-NTEV-tevS-GV (human) (P35462 whole entry): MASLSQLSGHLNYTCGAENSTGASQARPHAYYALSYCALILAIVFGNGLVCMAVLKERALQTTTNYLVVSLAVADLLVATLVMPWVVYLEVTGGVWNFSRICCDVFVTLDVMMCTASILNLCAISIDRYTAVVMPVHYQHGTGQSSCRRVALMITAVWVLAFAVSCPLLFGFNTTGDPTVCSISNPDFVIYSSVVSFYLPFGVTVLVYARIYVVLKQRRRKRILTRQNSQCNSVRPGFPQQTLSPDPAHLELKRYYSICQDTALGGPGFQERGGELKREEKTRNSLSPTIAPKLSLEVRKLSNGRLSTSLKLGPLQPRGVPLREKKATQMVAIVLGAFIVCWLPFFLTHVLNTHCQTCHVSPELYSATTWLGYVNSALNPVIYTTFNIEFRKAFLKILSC
For experiment [15], the target named is SSTR1-V2R-NTEV-tevS-GV (human) (UniProt P30872). The description is as above.
Sequence of SSTR1-V2R-NTEV-tevS-GV (human) (P30872 whole entry): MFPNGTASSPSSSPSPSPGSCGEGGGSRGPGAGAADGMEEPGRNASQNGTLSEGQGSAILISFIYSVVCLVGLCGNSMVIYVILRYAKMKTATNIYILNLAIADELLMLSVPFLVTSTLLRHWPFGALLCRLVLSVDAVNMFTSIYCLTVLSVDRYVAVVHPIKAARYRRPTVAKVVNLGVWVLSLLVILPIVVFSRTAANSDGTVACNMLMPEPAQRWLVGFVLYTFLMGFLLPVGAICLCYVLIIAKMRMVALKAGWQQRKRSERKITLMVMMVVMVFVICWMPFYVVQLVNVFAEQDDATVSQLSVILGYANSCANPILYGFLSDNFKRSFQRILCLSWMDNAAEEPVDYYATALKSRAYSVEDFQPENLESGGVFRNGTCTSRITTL
The target in another experiment is SSTR2 and SSTR3. Described as above.

Counter-ions that a name gives are not always drawn.

Sequence of β-arrestin2delta-CTEV (P32121 1-383, stated change not applied): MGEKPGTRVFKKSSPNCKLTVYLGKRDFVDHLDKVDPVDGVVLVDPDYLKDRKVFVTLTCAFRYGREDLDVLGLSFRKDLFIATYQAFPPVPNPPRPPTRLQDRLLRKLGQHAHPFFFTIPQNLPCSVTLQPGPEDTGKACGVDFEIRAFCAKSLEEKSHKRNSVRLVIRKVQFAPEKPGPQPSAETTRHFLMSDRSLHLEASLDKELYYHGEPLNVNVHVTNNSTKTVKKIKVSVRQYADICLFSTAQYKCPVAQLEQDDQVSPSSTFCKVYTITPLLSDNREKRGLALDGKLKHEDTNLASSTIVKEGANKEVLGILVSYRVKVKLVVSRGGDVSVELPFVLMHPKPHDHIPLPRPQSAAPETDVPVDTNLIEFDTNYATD
Sequence of DRD2-V2R-NTEV-tevS-GV (human) (P14416 whole entry): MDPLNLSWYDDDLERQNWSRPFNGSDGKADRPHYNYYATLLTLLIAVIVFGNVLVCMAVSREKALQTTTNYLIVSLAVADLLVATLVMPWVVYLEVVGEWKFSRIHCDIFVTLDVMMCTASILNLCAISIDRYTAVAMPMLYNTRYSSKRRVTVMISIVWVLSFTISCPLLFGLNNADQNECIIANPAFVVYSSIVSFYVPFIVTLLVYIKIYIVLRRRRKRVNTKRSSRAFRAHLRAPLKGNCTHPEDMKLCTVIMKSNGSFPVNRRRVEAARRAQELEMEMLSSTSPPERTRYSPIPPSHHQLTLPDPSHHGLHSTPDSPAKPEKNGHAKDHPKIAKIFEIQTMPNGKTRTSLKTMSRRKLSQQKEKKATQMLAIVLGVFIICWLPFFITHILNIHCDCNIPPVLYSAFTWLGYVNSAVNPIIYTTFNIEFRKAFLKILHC
Sequence of ADRA2C-V2R-NTEV-tevS-GV (human) (P18825 whole entry): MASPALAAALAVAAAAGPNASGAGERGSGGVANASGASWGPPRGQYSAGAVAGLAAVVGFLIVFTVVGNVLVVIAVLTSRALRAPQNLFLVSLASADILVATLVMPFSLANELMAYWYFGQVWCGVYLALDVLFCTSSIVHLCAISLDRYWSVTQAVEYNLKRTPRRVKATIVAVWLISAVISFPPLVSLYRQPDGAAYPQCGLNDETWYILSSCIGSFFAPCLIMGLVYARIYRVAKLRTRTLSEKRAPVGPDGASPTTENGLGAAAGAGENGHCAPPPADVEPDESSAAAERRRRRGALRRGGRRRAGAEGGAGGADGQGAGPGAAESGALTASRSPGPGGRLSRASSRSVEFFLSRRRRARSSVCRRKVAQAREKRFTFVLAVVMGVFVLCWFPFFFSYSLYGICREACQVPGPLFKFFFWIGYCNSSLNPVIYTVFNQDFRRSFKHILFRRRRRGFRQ

Consider `CNC[C@H](O)c1ccc(O)c(O)c1` [Epinephrine, Epinephrine hydrochloride], for which the “signals of both receptor subfamilies (dopamine and adrenergic) upon stimulation” value in [1] was “elevated signals”.

Regarding Somatostatin, the “induction rate (up to)” value in experiment [2] is on record as “up to 4 fold”; in experiment [3], 9–10 fold; in [4], 9–10 fold.

In the case of [Arg8]-Vasopressin acetate salt, the “receptor induction by agonist” value in [5] and in experiment [6] was “induced” in each case.

As for “β-arrestin2delta-CTEV (from UniProt P32121 1-383) (domain or fragment)”, the fold activation (split TEV signal) in experiment [7] amounted to 314 fold; in [8], 44.3 fold; in [9], 89.5 fold. For the same compound, the fold change of receptor activation (split TEV signal) over unstimulated in experiment [10] was 10 fold; in experiment [11] it was 13 fold; in experiment [12], 2 fold; in [14], 2 fold; in experiment [15], 4 fold; with SSTR2 and SSTR3, 9 to 10 fold. For the same compound, the fold change of receptor activation (split TEV signal) over unstimulated, at 10 µM serotonin in [13] stood at 5 fold.

For the origin of these results see publication PMC5970223, “Multiplexed profiling of GPCR activities by combining split TEV assays and EXT-based barcoded readouts” (Scientific Reports, 2018).
